In PMC4164784, “4E-BPs require non-canonical 4E-binding motifs and a lateral surface of eIF4E to repress translation” (Nature Communications, 2014):
No end group written: not given here.

How the values were obtained:
[1] = molecular target: T1, Dm eIF4E (residues 69–248, WT) (Drosophila melanogaster, UniProt P48598); assay: ITC, binding to eIF4E (WT, residues 69–248); conditions: for entropic penalty (in words): bipartite regions; for TΔS / ΔG / Molar ratio / ΔH: eIF4E WT (69–248), pH 7.0, nb = no binding; for TΔS / ΔG / Kd / Molar ratio / ΔH: 20 °C; for Kd: VP-ITC, 20 mM Na-phosphate (pH 7.0), 150 mM NaCl, GB1-fused peptides (C+NC 10 μM, C 50 μM, L+NC 100 μM CUP or 200 μM Thor and 4E-T, eIF4G 20 μM) into eIF4E WT 1–20 μM, one-site model, each experiment repeated twice, nb = no binding
T1 construct: The truncated His6-eIF4E (residues 69–248) that was used in the ITC experiments; His6 (N, cleaved yes); made in house; host or cells: E. coli BL21 Star (DE3)
T1 sequence (P48598 69-248 isoform P48598-2): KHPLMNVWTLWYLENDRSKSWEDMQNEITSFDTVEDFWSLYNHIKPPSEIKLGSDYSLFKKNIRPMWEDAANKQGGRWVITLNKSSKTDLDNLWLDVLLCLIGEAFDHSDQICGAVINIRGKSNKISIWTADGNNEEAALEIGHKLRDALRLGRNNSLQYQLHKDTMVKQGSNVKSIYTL
Method: (§1) Unless indicated otherwise, all the proteins were expressed in E. coli BL21 Star (DE3) cells (Invitrogen) that were grown in LB medium overnight at 20 °C. The lysis buffers were supplemented with DNaseI (5 μg ml^−1), lysozyme (1 mg ml^−1) and protease inhibitor cocktail (Roche). The truncated His6-eIF4E (residues 69–248) that was used in the ITC experiments and in Figs 2c and 5b was purified in lysis buffer containing 50 mM HEPES (pH 7.2), 300 mM NaCl, 20 mM imidazole and 2 mM β-mercaptoethanol using Ni^2+-affinity chromatography (HisTrap HP 5 ml, GE Healthcare) and eluted with a gradient of 20–500 mM imidazole. After the cleavage of the His6-tag with HRV3C protease (homemade), the protein was further purified using a heparin column (HiTrap Heparin HP 5 ml, GE Healthcare), followed by size exclusion chromatography (Superdex 75 16/60, GE Healthcare) in 20 mM Na-phosphate (pH 7.0), 300 mM NaCl and 2 mM dithiothreitol (DTT).
(§2) For the ITC measurements and the competition assays shown in Figs 4 and 5d–g, the 4E-BP peptides corresponding to the canonical (C) motifs, the combined (C+NC) motifs or L+NC were expressed with an HRV3C cleavable N-terminal MBP-tag and a non-cleavable C-terminal GB1 domain. The cells were lysed by sonication in lysis buffer containing 50 mM HEPES (pH 7.2), 300 mM NaCl and 2 mM DTT. The proteins were purified from the cleared lysates using amylose resin (New England Biolabs) followed by the cleavage of the MBP tag with HRV3C protease overnight at 4 °C. The proteins were further purified by size exclusion chromatography (Superdex 75 16/60, GE Healthcare) in 20 mM Na-phosphate (pH 7.0), 300 mM NaCl and 2 mM DTT. For the eIF4G fragment (residues 578–650) the MBP was removed after cleavage with TEV protease through an additional anion exchange chromatography (HiTrap Q HP 5 ml, GE Healthcare) before the final gel filtration.
(§3) The ITC experiments were performed using a VP-ITC microcalorimeter (MicroCal) at 20 °C. The solution of eIF4E (residues 69–248, WT or mutant: 1–20 μM) in the calorimetric cell was titrated with tenfold concentrated solutions of GB1-stabilized peptides corresponding to 4E-BPs C+NC (10 μM), C (50 μM), L+NC (100 μM CUP, 200 μM Thor and 4E-T) or eIF4G (residues 578–650, 20 μM) that were dissolved in the same buffer (20 mM Na-phosphate (pH 7.0) and 150 mM NaCl). The titration experiments consisted of an initial injection of 2 μl followed by 28 injections of 10 μl at an interval of 240 s. Each binding experiment was repeated twice. The thermodynamic parameters were estimated using a one-site binding model (Origin version 7.0), whereby the datapoint of the first injection was removed for the analysis.
(d) minimal regions for binding to eIF4E (wild-type (WT), residues 69–248). The top panels represent the raw data (μcal sec−1) whereas the bottom panels show the integrated data (kcal mole−1 of injectant) of heat changes that were best-fitted using a one-site binding model. The thermodynamic parameters correspond to heat changes that were detected when 4E-BPs (10 µM) or eIF4G (20 µM) were injected into the calorimetric cell (1.4 mL) containing 1 µM (a,b,c) or 2 µM (d) eIF4E.
Supplementary Figure 4. Thermodynamic parameters for the interaction of eIF4E with 4E-BP peptides. (a–f) ITC profiles for the interaction of eIF4E (WT, residues 69-248) and CUP (a,d), Thor (b,e) and 4E-T (c,f) peptides containing only the canonical motifs (a–c) or the L+NC regions (d–f). The measurements were performed as described in Supplementary
Fig. 3. The solutions contained the peptides corresponding to the canonical motifs (50 µM) or the L+NC regions (100 µM for CUP and 200 µM for Thor and 4E-T). The eIF4E concentration in the calorimetric cell was 5 µM (for the C peptides), 10 µM (for CUP L+NC) and 20 µM (for Thor and 4E-T L+NC peptides).
(1 picture or pasted object on this page, not shown here)

[2] = molecular target: T2, Dm eIF4E II-AA mutant (I96A, I112A; residues 69–248) (Drosophila melanogaster, UniProt P48598, I107A/I123A); assay: ITC, binding to eIF4E II-AA mutant (residues 69–248); conditions: for affinity for eIF4E II-AA mutant relative to WT (in words): bipartite peptides (C+NC) or eIF4G, lateral-surface mutant vs WT
T2 construct: The solution of eIF4E (residues 69–248, WT or mutant: 1–20 μM) in the calorimetric cell; His6 (N, cleaved yes); made in house; host or cells: E. coli BL21 Star (DE3)
Method: as §1, §2, §3
mutant (residues 69-248) and CUP (a), Thor (b), 4E-T (c) and eIF4G (d) peptides. The
measurements were performed as described in Supplementary Fig. 3. The solutions
contained the 4E-BP C+NC peptides (10 µM) and 20 µM for the eIF4G peptide. The eIF4E
II-AA mutant concentration in the calorimetric cell was 5 µM.

[3] = eIF4E II-AA (69–248), 20 °C, pH 7.0

T2 sequence (P48598 80-259 I107A/I123A): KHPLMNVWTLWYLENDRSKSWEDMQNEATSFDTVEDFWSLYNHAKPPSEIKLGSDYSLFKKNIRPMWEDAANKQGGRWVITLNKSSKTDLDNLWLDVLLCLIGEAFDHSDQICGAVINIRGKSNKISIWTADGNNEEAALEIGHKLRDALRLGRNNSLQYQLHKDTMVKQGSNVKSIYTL

Row | Substance | entropic penalty (in words) ([1]; eIF4E WT) | TΔS [1] | ΔG [1] | affinity for eIF4E II-AA mutant relative to WT (in words) [2] | TΔS [2, 3] | ΔG [2, 3] | Kd [1] | Molar ratio [1] | ΔH [1] | affinity of the 4E-T C peptide relative to CUP and Thor C peptides ([1]; eIF4E WT, C motif peptides) | Kd ([2]; VP-ITC, 20 °C, 20 mM Na-phosphate (pH 7.0), 150 mM NaCl, GB1-fused C+NC peptides (10 μM) or eIF4G (20 μM) into eIF4E II-AA 5 μM, one-site model, each experiment repeated twice) | ΔH [2, 3]
1 | 4E-T C+NC: 4E-T residues 9–44, eIF4E-binding region short, C-terminal GB1 | lower entropic penalties | -49.1 kJ/mol | -46.48 kJ/mol | not significantly affected | 9.04 kJ/mol | -45.19 kJ/mol | – | – | – | – | – | –
2 | 4E-T C: 4E-T residues 9–21, canonical motif | – | -34.1 kJ/mol | -43.72 kJ/mol | – | – | – | 0.016 µM | 0.95±0.01 | -77.8 ± 2.9 kJ/mol | approximately one and two orders of magnitude higher than those of the CUP and Thor peptides, respectively | – | –
3 | CUP C+NC: CUP residues 325–376, eIF4E-binding region short, C-terminal GB1 (KSYTRSRLMDIRNGMFNALMHRSKESFVMPRIATCDDIELEGRLRRMNIWRT-GB1; UniProt Q9VMA3 325-376, looked up, fragment) | highest entropic penalty | -99.8 kJ/mol | -45.1 kJ/mol | reduced by one and two orders of magnitude, respectively | 36.8 kJ/mol | -41.2 kJ/mol | 0.0091 µM | 1.05±0.02 | -144 ± 1.46 kJ/mol | – | 0.05 µM | -77.8 ± 2.9 kJ/mol
4 | Thor C+NC: Thor residues 50–83, eIF4E-binding region short, C-terminal GB1 (TKLIYERAFMKNLRGSPLSQTPPSNVPSCLLRGT-GB1; UniProt Q9XZ56 50-83, looked up, fragment) | lower entropic penalties | -20.5 kJ/mol | -49.66 kJ/mol | reduced by one and two orders of magnitude, respectively | -3.81 kJ/mol | -35.4 kJ/mol | – | – | – | – | – | –
5 | Thor C: Thor residues 50–63, canonical motif | – | -9.37 kJ/mol | – | – | – | – | – | – | – | – | – | –
